± gives the standard deviation of the averaged measurements.

Experimental findings from the supplement of paper PMC11316812 are described below.

One data set deals with MCF7. The data set is described as follows: percentage of EdU-negative (G0-arrested) nuclei per well, 72 h; higher = more G0 arrest. Conditions: reference: sequence is the full UniProt precursor, the tested protein was the secreted form or ectodomain.
A further data set concerns hTERT-HMEC. The description is as above. Conditions: reference: sequence is the full UniProt precursor, the tested protein was the secreted form or ectodomain.
The mark [1] stands for this setting: protein concentration 0.0225 µM.
The mark [2] stands for this setting: protein concentration 0.03125 µM.
[3] abbreviates: protein concentration 0.3125 µM.
Setting [4] is: protein concentration 0.02823 µM.
The mark [5] stands for this setting: protein concentration 0.2823 µM.
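Note: secreted proteins added to cultured cells, EdU pulse at the end, nuclei found by Hoechst imaging, EdU status from nuclear versus surrounding ring intensity ratio, PBS as neutral control.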

In the case of “MRLPWELLVLQSFILCLADDSTLHGPIFIQEPSPVMFPLDSEEKKVKLNCEVKGNPKPHIRWKLNGTDVDTGMDFRYSVVEGSLLINNPNKTQDAGTYQCTATNSFGTIVSREAKLQFAYLDNFKTRTRSTVSVRRGQGMVLLCGPPPHSGELSYAWIFNEYPSYQDNRRFVSQETGNLYIAKVEKSDVGNYTCVVTNTVTNHKVLGPPTPLILRNDGVMGEYEPKIEVQFPETVPTAKGATVKLECFALGNPVPTIIWRRADGKPIARKARRHKSNGILEIPNFQQEDAGLYECVAENSRGKNVARGQLTFYAQPNWIQKINDIHVAMEENVFWECKANGRPKPTYKWLKNGEPLLTRDRIQIEQGTLNITIVNLSDAGMYQCLAENKHGVIFSNAELSVIAVGPDFSRTLLKRVTLVKVGGEVVIECKPKASPKPVYTWKKGRDILKENERITISEDGNLRIINVTKSDAGSYTCIATNHFGTASSTGNLVVKDPTRVMVPPSSMDVTVGESIVLPCQVTHDHSLDIVFTWSFNGHLIDFDRDGDHFERVGGQDSAGDLMIRNIQLKHAGKYVCMVQTSVDRLSAAADLIVRGPPGPPEAVTIDEITDTTAQLSWRPGPDNHSPITMYVIQARTPFSVGWQAVSTVPELIDGKTFTATVVGLNPWVEYEFRTVAANVIGIGEPSRPSEKRRTEEALPEVTPANVSGGGGSKSELVITWETVPEELQNGRGFGYVVAFRPYGKMIWMLTVLASADASRYVFRNESVHPFSPFEVKVGVFNNKGEGPFSPTTVVYSAEEEPTKPPASIFARSLSATDIEVFWASPLEKNRGRIQGYEVKYWRHEDKEENARKIRTVGNQTSTKITNLKGSVLYHLAVKAYNSAGTGPSSATVNVTTRKPPPSQPPGNIIWNSSDSKIILNWDQVKALDNESEVKGYKVLYRWNRQSSTSVIETNKTSVELSLPFDEDYIIEIKPFSDGGDGSSSEQIRIPKISNAYARGSGASTSNACTLSAISTIMISLTARSSL [Q8IWV2]”, the “percentage of EdU-negative” value was determined as 25.6 ± 0.8% with MCF7 (protein concentration 0.018 µM), 27 ± 1.7% in the data set on MCF7 (protein concentration 0.18 µM), 5.06 ± 0.29% in the data set on hTERT-HMEC (protein concentration 0.018 µM) and 8.55 ± 0.98% with hTERT-HMEC (protein concentration 0.18 µM).
Take “MVATKTFALLLLSLFLAVGLGEKKEGHFSALPSLPVGSHAKVSSPQPRGPRYAEGTFISDYSIAMDKIHQQDFVNWLLAQKGKKNDWKHNITQREARALELASQANRKEEEAVEPQSSPAKNPSDEDLLRDLLIQELLACLLDQTNLCRLRSR”: the “percentage of EdU-negative” value was found to be 26.1 ± 1.5% with MCF7 (setting [1]), 24.3 ± 2.4% in the data set with MCF7 (protein concentration 0.225 µM), 4.89 ± 0.063% in the data set on hTERT-HMEC (setting [1]) and 6.12 ± 0.68% in the data set on hTERT-HMEC (protein concentration 0.225 µM).
On to “MTSSLLLAFLLLAPTTVATPRAGGQCPACGGPTLELESQRELLLDLAKRSILDKLHLTQRPTLNRPVSRAALRTALQHLHGVPQGALLEDNREQECEIISFAETGLSTINQTRLDFHFSSDRTAGDREVQQASLMFFVQLPSNTTWTLKVRVLVLGPHNTNLTLATQYLLEVDASGWHQLPLGPEAQAACSQGHLTLELVLEGQVAQSSVILGGAAHRPFVAARVRVGGKHQIHRRGIDCQGGSRMCCRQEFFVDFREIGWHDWIIQPEGYAMNFCIGQCPLHIAGMPGIAASFHTAVLNLLKANTAAGTTGGGSCCVPTARRPLSLLYYDRDSNIVKTDIPDMVVEACGCS”, for which the “percentage of EdU-negative” value in the data set with MCF7 (setting [2]) is 25.8 ± 2.3%; with MCF7 (setting [3]) it was 27.7 ± 2.4%; in the data set with hTERT-HMEC (setting [2]) it was 4.58 ± 0.61%; with hTERT-HMEC (setting [3]), 5.17 ± 0.32%.
With “MERASCLLLLLLPLVHVSATTPEPCELDDEDFRCVCNFSEPQPDWSEAFQCVSAVEVEIHAGGLNLEPFLKRVDADADPRQYADTVKALRVRRLTVGAAQVPAQLLVGALRVLAYSRLKELTLEDLKITGTMPPLPLEATGLALSSLRLRNVSWATGRSWLAELQQWLKPGLKVLSIAQAHSPAFSCEQVRAFPALTSLDLSDNPGLGERGLMAALCPHKFPAIQNLALRNTGMETPTGVCAALAAAGVQPHSLDLSHNSLRATVNPSAPRCMWSSALNSLNLSFAGLEQVPKGLPAKLRVLDLSCNRLNRAPQPDELPEVDNLTLDGNPFLVPGTALPHEGSMNSGVVPACARSTLSVGVSGTLVLLQGARGFA”, the “percentage of EdU-negative” value amounted to 26.8 ± 1.2% in the data set with MCF7 (setting [4]), 27.2 ± 0.7% in the data set with MCF7 (setting [5]), 4.9 ± 0.54% in the data set on hTERT-HMEC (setting [4]) and 8.12 ± 1.2% in the data set on hTERT-HMEC (setting [5]).
As for “MPLLWLRGFLLASCWIIVRSSPTPGSEGHSAAPDCPSCALAALPKDVPNSQPEMVEAVKKHILNMLHLKKRPDVTQPVPKAALLNAIRKLHVGKVGENGYVEIEDDIGRRAEMNELMEQTSEIITFAESGTARKTLHFEISKEGSDLSVVERAEVWLFLKVPKANRTRTKVTIRLFQQQKHPQGSLDTGEEAEEVGLKGERSELLLSEKVVDARKSTWHVFPVSSSIQRLLDQGKSSLDVRIACEQCQESGASLVLLGKKKKKEEEGEGKKKGGGEGGAGADEEKEQSHRPFLMLQARQSEDHPHRRRRRGLECDGKVNICCKKQFFVSFKDIGWNDWIIAPSGYHANYCEGECPSHIAGTSGSSLSFHSTVINHYRMRGHSPFANLKSCCVPTKLRPMSMLYYDDGQNIIKKDIQNMIVEECGCS”, the “percentage of EdU-negative” value in the data set on MCF7 (setting [2]) was 26.6 ± 1.6%; in the data set with MCF7 (setting [3]), 27.8 ± 1.4%; in the data set with hTERT-HMEC (setting [2]), 5.64 ± 0.18%; in the data set on hTERT-HMEC (setting [3]), 5.29 ± 1.4%.
